Measured values as given in publication PMC3907550.

Experiments:
[1] = target: HA2His6-tagged Arabidopsis ADK (Arabidopsis) (UniProt Q9LZG0)
[2] = target: HA2His6-tagged Arabidopsis ADK (Arabidopsis) (UniProt Q9LZG0); remark: listed apart in the source

Chain of UniProt Q9LZG0 (Q9LZG0 whole entry): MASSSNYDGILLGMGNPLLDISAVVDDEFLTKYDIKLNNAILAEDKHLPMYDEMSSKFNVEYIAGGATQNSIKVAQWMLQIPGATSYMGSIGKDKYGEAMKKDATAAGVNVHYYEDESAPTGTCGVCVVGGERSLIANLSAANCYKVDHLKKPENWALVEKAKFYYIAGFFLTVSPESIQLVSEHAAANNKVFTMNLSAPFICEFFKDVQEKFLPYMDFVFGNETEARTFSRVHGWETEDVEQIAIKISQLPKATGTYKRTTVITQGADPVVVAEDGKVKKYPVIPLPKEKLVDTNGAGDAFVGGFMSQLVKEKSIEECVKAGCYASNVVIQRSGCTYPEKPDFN

In the case of “HA2His6-tagged SnRK1 kinase domain (SnRK1-KD; amino acids 1-343) (from UniProt P92958 1-343) (domain or fragment)”, the ADK activity against increasing HA2His6-SnRK1-KD:ADK molar ratio, up to 4∶1 [1] is reported as 90 % of maximum and the ADK activity (labeled 5′-AMP from adenosine and γ32P-ATP) with a two-fold molar excess of HA2His6-SnRK1-KD, against ADK+GFP [2] is reported as 6 fold.
